Assay [1] concerns the target human IgG (Chugai Pharmaceutical Co., Ltd.) (human). The assay is described as follows: SPR, BIAcore T200, IgG immobilised; 1:1 binding fit. For orientation: SPR reads the build-up and loss of mass on a sensor chip optically.
Assay [2] shares this target. Kind of assay: SPR, BIAcore T200, IgG immobilised; equilibrium value.

Among the data in US20240368223A1 are Kd values, retold here.

Bridges are numbered along the chain shown (N, C = ends). Primed or numbered codes have the meaning given here. The star is where a group is joined. Biotin = O=C1N[C@H]2[C@H](CS[C@H]2CCCCC(=O)*)N1; PEG4′ = amino-PEG4 spacer

As usually defined, the Kd is the constant that tells how readily two partners part at equilibrium. {Biotin-PEG4′}-GPDCAYHRGELVWCTFH-NH2 (disulfide 4-14) [Type I IgG-binding peptide …-NH2]: the Kd in assay [1] worked out at 9.1 nM; in assay [2], 10 nM.
